# Assay results: patent publication WO2025083273A1 (dated 2025)
# Changes are numbered by the printed parent chain.
# T1: human DR3 (TNFRSF25) expressed on cells (human, UniProt Q93038 25-417)
# T1 sequence: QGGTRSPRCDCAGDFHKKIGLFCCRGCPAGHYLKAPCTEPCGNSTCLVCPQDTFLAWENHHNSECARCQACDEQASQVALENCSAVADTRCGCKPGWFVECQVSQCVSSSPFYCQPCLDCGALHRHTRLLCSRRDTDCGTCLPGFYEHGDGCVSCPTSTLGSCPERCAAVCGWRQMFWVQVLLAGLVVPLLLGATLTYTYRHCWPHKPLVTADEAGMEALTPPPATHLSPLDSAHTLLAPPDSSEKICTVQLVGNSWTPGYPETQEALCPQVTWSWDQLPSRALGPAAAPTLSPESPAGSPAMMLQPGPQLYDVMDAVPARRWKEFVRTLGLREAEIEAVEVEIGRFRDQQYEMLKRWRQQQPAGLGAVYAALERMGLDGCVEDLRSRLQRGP
# B1: VHg5/VLg1 (antibody, human IgG1, V domains shown)
# VH: QVQLQQSGGGLVQAGGSLRLSCAASGFTFTSYAMSWVRQAPGKGLEWVATISDGDSYSYFPDSVKDRFIISRDNAKNSLFLQMNSLRAEDTAVYYCARDRIYGSVQYYAMDYWGRGTLVTVSS
# VL: DVVMTQSPDSLAVSLGERATINCRASESVEFSGTSLMQWYQQKPGQPPKLLIYAASNVESGVPDRFSGSGSGTDFTLTISSLQAEDVVVYYCQQSRKLPYTFGGGTKVEIK
# B2: VHg5/VLg4 (antibody, human IgG1, V domains shown)
# VH: B1 VH
# VL: B1 VL with N22S, G45R, P48L, V88A, G104Q, K107R, V108L
# B3: VHg5/VLg6 (antibody, human IgG1, V domains shown)
# VH: B1 VH
# VL: DVVMTQSPPSLPVTPGEPASISCRASESVEFSGTSLMQWYLQKPGQSPQVLIYAASNVESGVPDRFSGSGSGTDFTLKISRVEAEDVGVYYCQQSRKLPYTFGQGTRLEIK
# B4: VHg5/mVL (antibody, human IgG1, V domains shown)
# VH: B1 VH
# VL: DIVLTQSPASLAVSLGQRATISCRASESVEFSGTSLMQWYQQRPGLPPKLLIYAASNVESGVPARFSGSGSGTDFSLNIHPVEEDDIAMYFCQQSRKLPYTFGGGTKLEIN
# B5: VHg10/VLg13 (antibody, human IgG1, V domains shown)
# VH: EVQLVESGGGLVQPGGSLRLSCAASGFTFSSYAMSWVRQAPGKGLEWVSTISDGDSYSYFPDSVKDRFTISRDNSKNTLYLQMNSLRAEDTAVYYCARDRIYGSVQYYAMDYWGQGTLVTVSS
# VL: DIQMTQSPSSLSASVGDRVTITCRASESVEFSGTSLMQWYQQKPGKAPKLLIYAASNVESGVPSRFSGSGSGTDFTFTISSLQPEDIATYYCQQSRKLPYTFGQGTKLEIK
# B6: VHg9/mVL (antibody, human IgG1, V domains shown)
# VH: B5 VH with Q13K, S75A, T78S
# VL: B4 VL
# B7: VHg2/VLg5 (antibody, human IgG1, V domains shown)
# VH: B5 VH with E1Q, V2M, E6Q, Q13K, V37I, S75A, T78S, A97T, Q115R
# VL: EIVLTQSPGTLSLSPGERGTLSCRASESVEFSGTSLMQWYQQKPGQAPRLLIYAASNVESGIPDRFSGSGSETDFTLTISRLEPEDLAVYYCQQSRKLPYTFGQGTRLEIK
# B8: VHg9/VLg12 (antibody, human IgG1, V domains shown)
# VH: B5 VH with Q13K, S75A, T78S
# VL: B7 VL with G9A, G19A, D64A, E72G, R81S, L87F, R107K
# B9: VHg3/VLg1 (antibody, human IgG1, V domains shown)
# VH: B5 VH with E6Q, Q13K, T28K, V48L, T69I, S75A, T78S, A88V, A92G
# VL: B1 VL
# B10: VHg9/VLg2 (antibody, human IgG1, V domains shown)
# VH: B5 VH with Q13K, S75A, T78S
# VL: B5 VL with M4L, P44A, K46L, F77L, I87F, A88G, K107R
# B11: VHg9/VLg5 (antibody, human IgG1, V domains shown)
# VH: B5 VH with Q13K, S75A, T78S
# VL: B7 VL
# B12: VHg2/VLg6 (antibody, human IgG1, V domains shown)
# VH: B5 VH with E1Q, V2M, E6Q, Q13K, V37I, S75A, T78S, A97T, Q115R
# VL: B3 VL
# B13: VHg3/mVL (antibody, human IgG1, V domains shown)
# VH: B5 VH with E6Q, Q13K, T28K, V48L, T69I, S75A, T78S, A88V, A92G
# VL: B4 VL
# B14: VHg3/VLg2 (antibody, human IgG1, V domains shown)
# VH: B5 VH with E6Q, Q13K, T28K, V48L, T69I, S75A, T78S, A88V, A92G
# VL: B5 VL with M4L, P44A, K46L, F77L, I87F, A88G, K107R
# B15: VHg3/VLg6 (antibody, human IgG1, V domains shown)
# VH: B5 VH with E6Q, Q13K, T28K, V48L, T69I, S75A, T78S, A88V, A92G
# VL: B3 VL
# B16: VHg10/VLg1 (antibody, human IgG1, V domains shown)
# VH: B5 VH
# VL: B1 VL
# B17: VHg2/mVL (antibody, human IgG1, V domains shown)
# VH: B5 VH with E1Q, V2M, E6Q, Q13K, V37I, S75A, T78S, A97T, Q115R
# VL: B4 VL
# B18: VHg10/mVL (antibody, human IgG1, V domains shown)
# VH: B5 VH
# VL: B4 VL
# B19: VHg1/VLg1 (antibody, human IgG1, V domains shown)
# VH: B5 VH with E1Q, E6Q, A92S
# VL: B1 VL
# B20: VHg10/VLg2 (antibody, human IgG1, V domains shown)
# VH: B5 VH
# VL: B5 VL with M4L, P44A, K46L, F77L, I87F, A88G, K107R
# B21: VHg6/VLg5 (antibody, human IgG1, V domains shown)
# VH: B1 VH with A14P, T30S, I69T, K76R, F80Y
# VL: B7 VL
# B22: VHg6/VLg6 (antibody, human IgG1, V domains shown)
# VH: B1 VH with A14P, T30S, I69T, K76R, F80Y
# VL: B3 VL
# B23: VHg3/VLg5 (antibody, human IgG1, V domains shown)
# VH: B5 VH with E6Q, Q13K, T28K, V48L, T69I, S75A, T78S, A88V, A92G
# VL: B7 VL
# B24: VHg2/VLg1 (antibody, human IgG1, V domains shown)
# VH: B5 VH with E1Q, V2M, E6Q, Q13K, V37I, S75A, T78S, A97T, Q115R
# VL: B1 VL
# B25: VHg1/VLg6 (antibody, human IgG1, V domains shown)
# VH: B5 VH with E1Q, E6Q, A92S
# VL: B3 VL
# B26: VHg9/VLg13 (antibody, human IgG1, V domains shown)
# VH: B5 VH with Q13K, S75A, T78S
# VL: B5 VL
# B27: VHg1/VLg13 (antibody, human IgG1, V domains shown)
# VH: B5 VH with E1Q, E6Q, A92S
# VL: B5 VL
# B28: VHg6/mVL (antibody, human IgG1, V domains shown)
# VH: B1 VH with A14P, T30S, I69T, K76R, F80Y
# VL: B4 VL
# B29: VHg9/VLg4 (antibody, human IgG1, V domains shown)
# VH: B5 VH with Q13K, S75A, T78S
# VL: B1 VL with N22S, G45R, P48L, V88A, G104Q, K107R, V108L
# Target: T1, human DR3 (TNFRSF25) expressed on cells
# Assay: cell-based or functional assay
"Signal (FLU), isotype control",Signal (FLU),Molecule
385000 FLU,–,R347 IgG (antibody)
–,410000 FLU,B1
–,1.44e+06 FLU,B2
–,387000 FLU,B3
–,2.69e+06 FLU,B4
–,3.27e+06 FLU,B5
–,3.35e+06 FLU,B6
–,2.52e+06 FLU,B7
–,682000 FLU,B8
–,2.46e+06 FLU,B9
–,2.88e+06 FLU,B10
–,3.05e+06 FLU,B11
–,1.62e+06 FLU,B12
–,2.86e+06 FLU,B13
–,2.23e+06 FLU,B14
–,2.05e+06 FLU,B15
–,2.54e+06 FLU,B16
–,2.57e+06 FLU,B17
–,3.2e+06 FLU,B18
–,797000 FLU,B19
–,2.84e+06 FLU,B20
–,2.85e+06 FLU,B21
–,1.96e+06 FLU,B22
–,2.43e+06 FLU,B23
–,402000 FLU,B24
–,1.5e+06 FLU,B25
–,3.33e+06 FLU,B26
–,2.81e+06 FLU,B27
–,2.6e+06 FLU,B28
–,2.96e+06 FLU,B29
